Assay results reported in paper PMC7603204.
Changes are numbered by the printed parent chain. Names and notes keep the numbering of the source.

B1: E. coli AlaRS (Escherichia coli K-12; C666A/D551Y) (protein)
chain: SKSTAEIRQAFLDFFHSKGHQVVASSSLVPHNDPTLLFTNAGMNQFKDVFLGLDKRNYSRATTSQRCVRAGGKHNDLENVGYTARHHTFFEMLGNFSFGDYFKHDAIQFAWELLTSEKWFALPKERLWVTVYESDDEAYEIWEKEVGIPRERIIRIGDNKGAPYASDNFWQMGDTGPCGPCTEIFYDHGDHIWGGPPGSPEEDGDRYIEIWNIVFMQFNRQADGTMEPLPKPSVDTGMGLERIAAVLQHVNSNYDIDLFRTLIQAVAKVTGATDLSNKSLRVIADHIRSCAFLIADGVMPSNENRGYVLRRIIRRAVRHGNMLGAKETFFYKLVGPLIDVMGSAGEDLKRQQAQVEQVLKTEEEQFARTLERGLALLDEELAKLSGDTLDGETAFRLYDTYGFPVDLTADVCRERNIKVDEAGFEAAMEEQRRRAREASGFGADYNAMIRVDSASEFKGYDHLELNGKVTALFVDGKAVDAINAGQEAVVVLDQTPFYAESGGQVGDKGELKGANFSFAVEDTQKYGQAIGHIGKLAAGSLKVGDAVQAYVDEARRARIRLNHSATHLMHAALRQVLGTHVSQKGSLVNDKVLRFDFSHNEAMKPEEIRAVEDLVNTQIRRNLPIETNIMDLEAAKAKGAMALFGEKYDERVRVLSMGDFSTELAGGTHASRTGDIGLFRIISESGTAAGVRRIEAVTGEGAIATVHADSDRLSEVAHLLKGDSNNLADKVRSVLERTRQLEKELQQLKEQAAAQESANLSSKAIDVNGVKLLVSELSGVEPKMLRTMVDDLKNQLGSTIIVLATVVEGKVSLIAGVSKDVTDRVKAGELIGMVAQQVGGKGGGRPDMAQAGGTDAAALPAALASVKGWVSAKLQ
B2: E. coli AlaRS (Escherichia coli K-12; R561C) (protein)
chain: B1 chain with Y550D, R560C, A665C

Substrate: C[C@H](N)C(=O)O
Assay: purified protein
Details: 2 mM ATP, 2 mM PPi, 10 mM MgCl2, 30 mM KCl, 2 mM NaF, pH 7.2, 37 °C, amino acid activation

Protein	Km	kcat	kcat/Km
B1	217 ± 100 µM	18.3 s⁻¹	84300 M⁻¹ s⁻¹
B2	203 ± 68 µM	21.8 s⁻¹	107000 M⁻¹ s⁻¹
